How the values were obtained:
[1] = target: myristoylated human Arf1 (myrArf1), GTP-bound form at a membrane surface (human) (UniProt P84077)
[2] = target: myristoylated human Arf1 (myrArf1), GTP-bound form at a membrane surface (human) (UniProt P84077); test: not stated; binding test of the K391A mutant shown in Fig. SI5; method not given
[3] = target: myrArf1 with Glu54 mutated to Ala (human) (UniProt P84077)
[4] = target: myristoylated human Arf1 (myrArf1), GTP-bound form at a membrane surface (human) (UniProt P84077); remark: listed apart in the source

myristoylated human Arf1 (myrArf1), GTP-bound form at a membrane surface (human), sequence (P84077 whole entry): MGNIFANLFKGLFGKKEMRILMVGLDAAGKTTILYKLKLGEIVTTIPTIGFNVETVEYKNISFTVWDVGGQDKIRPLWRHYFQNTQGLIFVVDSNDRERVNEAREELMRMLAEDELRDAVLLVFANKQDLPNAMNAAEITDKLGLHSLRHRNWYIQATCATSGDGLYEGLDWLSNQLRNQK
wt PZA, [325–724]ASAP1 (PH domain, Arf GAP zinc-binding domain and ankyrin repeats), sequence (Q9QWY8 325-724): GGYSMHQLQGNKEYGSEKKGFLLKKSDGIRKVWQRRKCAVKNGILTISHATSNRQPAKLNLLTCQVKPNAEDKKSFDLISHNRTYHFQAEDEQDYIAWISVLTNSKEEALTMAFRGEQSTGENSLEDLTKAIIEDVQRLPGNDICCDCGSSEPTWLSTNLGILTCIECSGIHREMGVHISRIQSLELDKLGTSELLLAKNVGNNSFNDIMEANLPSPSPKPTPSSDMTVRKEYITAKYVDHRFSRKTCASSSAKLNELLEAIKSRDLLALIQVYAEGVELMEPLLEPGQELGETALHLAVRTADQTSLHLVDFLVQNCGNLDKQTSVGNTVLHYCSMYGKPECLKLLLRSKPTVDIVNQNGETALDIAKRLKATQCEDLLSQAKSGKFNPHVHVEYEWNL
ASAP1 PZA with Phe438 mutated to Ala, sequence (Q9QWY8 other isoform, or with tags, fused parts or gaps, change not shown): as the sequence (Q9QWY8 325-724) above, with F114A counted along it
ASAP1 PZA with His405 mutated to Glu, sequence (Q9QWY8 other isoform, or with tags, fused parts or gaps, change not shown): as the sequence (Q9QWY8 325-724) above, with H81E counted along it
myrArf1 with Glu54 mutated to Ala (human), sequence (P84077 other isoform, or with tags, fused parts or gaps, change not shown): as the sequence (P84077 whole entry) above, with E54A counted along it
ASAP1 PZA with Lys391 mutated to Ala, sequence (Q9QWY8 other isoform, or with tags, fused parts or gaps, change not shown): as the sequence (Q9QWY8 325-724) above, with K67A counted along it
ΔN14PZA, ASAP1 PZA without residues 325–338, sequence (Q9QWY8 339-724, stated change not applied): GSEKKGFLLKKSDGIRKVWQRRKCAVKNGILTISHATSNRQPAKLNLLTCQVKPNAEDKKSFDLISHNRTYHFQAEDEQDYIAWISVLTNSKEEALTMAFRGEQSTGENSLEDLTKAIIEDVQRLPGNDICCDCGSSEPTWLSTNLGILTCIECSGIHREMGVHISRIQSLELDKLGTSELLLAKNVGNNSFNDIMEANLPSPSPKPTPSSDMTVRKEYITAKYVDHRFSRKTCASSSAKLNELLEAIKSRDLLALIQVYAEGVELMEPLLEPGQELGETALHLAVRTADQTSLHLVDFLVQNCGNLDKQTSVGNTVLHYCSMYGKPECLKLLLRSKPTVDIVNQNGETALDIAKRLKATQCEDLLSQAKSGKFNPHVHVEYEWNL

ArfGAP activity (C50 of PZA for 50% GTP hydrolysis in 3 min), fold reduction against wild type [1] | Substance | also measured
15 fold | ASAP1 PZA with Phe438 mutated to Ala (from UniProt Q9QWY8 325-724) (domain or fragment) | –
– | ASAP1 PH domain with Lys391 mutated to Ala (from UniProt Q9QWY8 325-451) (domain or fragment) | fold reduction of binding against wild type [2]: 2 fold
– | wt PZA, [325–724]ASAP1 (PH domain, Arf GAP zinc-binding domain and ankyrin repeats) (from UniProt Q9QWY8 325-724) (domain or fragment) | ArfGAP activity (C50 of PZA for 50% GTP hydrolysis in 3 min), fold reduction against wild type [3]: 70 fold
100 fold | ASAP1 PZA with Lys391 mutated to Ala (from UniProt Q9QWY8 325-724) (domain or fragment) | –
– | ΔN14PZA, ASAP1 PZA without residues 325–338 (from UniProt Q9QWY8 339-724) (domain or fragment) | GAP activity on myrArf1·GTP relative to wt PZA (fold of wt PZA) [4]: < 0.01
5 fold | ASAP1 PZA with His405 mutated to Glu (from UniProt Q9QWY8 325-724) (domain or fragment) | –
